Laboratory results reported in patent US11110115B2, “Nucleic acid molecule with anti-inflammatory and anti-coagulant and organ-protective properties” (APTAHEM AB, priority 2017, dated 2021).
“Also recorded” adds a separate entry of the source.

Tests used:
Assay type in all cases: in vivo, C57BL/6 mice
[1] = system: IL-10, TNF, IL-6 and IL-1β in serum; assay: LPS-induced cytokine production model, serum cytokines; conditions: 2 h after LPS
Procedure: (§1) Female C57BL/6 mice (Taconic Biosciences) were 8 weeks of age at the start of the study. Animals had free access to autoclaved and acidified drinking water. Animals were housed under standard laboratory conditions, air conditioned and filtered with adequate fresh air supply. Animals were kept in a climate controlled environment.
SEQ ID NO:2 (Biospring) (100 mg) was dissolved in 5 ml saline to form a stock solution of 20 mg/ml. Vehicle is saline solution.
Dexamethasone stock was prepared by mixing dexamethasone and beta-cyclodextrin at a 4:96 ratio, solubilized in PBS at 2 mg dexamethasone/mL and stored at −20° C. Dosing solution of dexamethasone was prepared by diluting the stock solution to 1 mg/mL with PBS. Dexamethasone administered at 5 to 10 mg/kg, i.p. is used as a positive control for suppression of the immune response.
Two hours after LPS injection mice were bled and serum was isolated and added to EDTA in Gel Clot Activator tubes. At least 100 μl has been analysed. The concentration of IL-10, TNF, IL-6 and IL-1β in serum was measured using eBioscience's Luminex kit, according to manufacturer's protocol. A single analysis was performed on every sample.

[2] = LPS-induced mortality, survival assay; conditions: 72 hours
Procedure: as §1, with “In this study, female” for “Female”, “mice of 10-12 weeks old” for “mice”, “used.” for “8 weeks of age at the start of the study.”
Lipopolysaccharide (LPS) from E. coli (O111:B4) was diluted in PBS.
SEQ ID NO:2 was stored in powder form at 4° C. until use. Powder was added to saline and vortexed into solution to prepare SEQ ID NO:2 stock solution.
For all other groups, LPS was injected intraperitoneally at 10 mg/kg. Mice were intravenously injected 15 minutes and 60 minutes after LPS administration with SEQ ID NO:2 at concentrations of 10, 25, 50 and 100 mg/kg. Except group 6, which was intravenously injected once at 15 minutes and once at 120 minutes after LPS administration.
When high doses of LPS are administered, animals will suffer LPS-induced shock and mortality may be observed. For 72 hours after LPS injection, mice were checked for mortality several times each day. All surviving mice were euthanized at the end of the study (day 3).

[3] = Expanded toxicology panel of serum in LPS-induced shock; conditions: blood at Hour 28
Procedure: In this study, female C57BL/6 mice of 10-12 weeks old (Taconic Biosciences) were used. Animals had free access to autoclaved and acidified drinking water. Animals were housed under standard laboratory conditions, air conditioned and filtered with adequate fresh air supply. Animals were kept in a climate-controlled environment. Lipopolysaccharide (LPS) from E. coli (O111:B4) was diluted in PBS. SEQ ID NO:2 was stored in powder form at 4° C. until use. Powder was added to saline and vortexed into solution to prepare SEQ ID NO:2 stock solution. […] For all other groups, LPS was injected intraperitoneally at 10 mg/kg. Mice were intravenously injected 15 minutes and 60 minutes after LPS administration with SEQ ID NO:2 at concentrations of 10, 25, 50 and 100 mg/kg. […] Blood collected at Hour 28 was analyzed for expanded toxicology panel performed by IDEXX Laboratories, Inc. (N. Grafton, Mass.). We attempted to collect enough blood to run each analysis 5 times for each group. The extended toxicology analysis measured concentrations of AST, ALT, creatine kinase, albumin, total protein, BUN, cholesterol, glucose, phosphorus, triglycerides, HDL cholesterol, bile acid, LDL cholesterol, total bilirubin, GGT, bilirubin conjugated, and creatinine. Here, results are shown for AST, ALT, creatine kinase, albumin, total protein, BUN, cholesterol, phosphorus, triglycerides, cholesterol, and creatinine.

[4] = 25 mg/kg i.v., not statistically significant
[5] = 50 mg/kg i.v., not statistically significant
[6] = 50 mg/kg at 15 and 60 min after LPS
[7] = 50 mg/kg at 60 and 120 min after LPS
[8] = groups treated i.v. with SEQ ID NO:2 after LPS
[9] = overall, groups treated i.v. with SEQ ID NO:2

B1: SEQ ID NO:2: nucleic acid sequence of SEQ ID NO:1 in which each C and U is fluorinated to increase stability in plasma (nucleic acid)
chain: GGGAAUUCGAGCUCGGUACCAACAAUACGACUACACCAUCAAAAGUAUUAUCUUGCAUCGAAGGUUGGCACGUAGCAAGCUCUGCAGUCG
modifications: fluorinated C and U; (6)..(7) uracil is fluorinated; (8)..(8) cytosine is fluorinated; (12)..(12) cytosine is fluorinated; (13)..(13) uracil is fluorinated; (14)..(14) cytosine is fluorinated; (17)..(17) uracil is fluorinated; (19)..(20) cytosine is fluorinated; (23)..(23) cytosine is fluorinated; (26)..(26) uracil is fluorinated; (28)..(28) cytosine is fluorinated; (31)..(31) cytosine is fluorinated; (32)
IL-1β concentration in serum compared to vehicle group ([1]; 5 mg/kg i.v.): similar
IL-6 concentration in serum compared to vehicle group ([1]; 5 mg/kg i.v.): similar
TNF concentration in serum compared to vehicle group ([1]; 5 mg/kg i.v.): similar
serum concentration of IL-10, difference to vehicle group ([1]; 25 mg/kg i.v. 5 min before LPS): significant
IL-1β concentration in serum compared to vehicle group [1, 4]: lower
IL-6 concentration in serum compared to vehicle group [1, 4]: lower
TNF concentration in serum compared to vehicle group [1, 4]: lower
serum concentration of IL-10, difference to vehicle group ([1]; 50 mg/kg i.v. 5 min before LPS): significant
reduction in IL-1β concentration in serum compared to vehicle group ([1]; 50 mg/kg i.v.): statistically significant
IL-6 concentration in serum compared to vehicle group [1, 5]: lower
TNF concentration in serum compared to vehicle group [1, 5]: lower
serum concentration of IL-10 compared to vehicle group ([1]; SEQ ID NO:2 groups (5, 25, 50 mg/kg i.v.) 5 min before LPS): increase
survival compared to vehicle treated mice ([2]; 25 mg/kg i.v. twice after LPS 10 mg/kg i.p.): significantly improved
survival compared to vehicle treated mice ([2]; 50 mg/kg i.v. twice after LPS 10 mg/kg i.p.): significantly improved
survival compared to vehicle treated mice ([2]; 100 mg/kg i.v. twice after LPS 10 mg/kg i.p.): significantly improved
Cholesterol in serum ([3]; 25 mg/kg at 15 and 60 min after LPS): significant improvements
Cholesterol in serum [3, 6]: significant improvements
Creatinine in serum [3, 6]: significant improvements
Creatinine in serum [3, 7]: significant improvements
Triglycerides in serum [3, 7]: significant improvements
serum concentration of ALT compared to vehicle treated group [3, 8]: did not reach statistical significance
serum concentration of AST compared to vehicle treated group [3, 8]: improvements; also recorded: significantly improved
serum concentration of BUN compared to vehicle treated group [3, 8]: improvements; also recorded: significantly improved
serum concentration of creatine kinase compared to vehicle treated group [3, 8]: did not reach statistical significance
serum concentration of phosphorus compared to vehicle treated group [3, 8]: improvements; also recorded: significantly improved
serum concentration of cholesterol compared to vehicle treated group [3, 9]: significantly improved
serum concentration of creatinine compared to vehicle treated group [3, 9]: significantly improved
serum concentration of triglycerides compared to vehicle treated group [3, 9]: significantly improved
